In PMC7037359:

Target: Human recombinant ADAM17 (human) (UniProt P78536)
Sequence of UniProt P78536 (P78536 18-824): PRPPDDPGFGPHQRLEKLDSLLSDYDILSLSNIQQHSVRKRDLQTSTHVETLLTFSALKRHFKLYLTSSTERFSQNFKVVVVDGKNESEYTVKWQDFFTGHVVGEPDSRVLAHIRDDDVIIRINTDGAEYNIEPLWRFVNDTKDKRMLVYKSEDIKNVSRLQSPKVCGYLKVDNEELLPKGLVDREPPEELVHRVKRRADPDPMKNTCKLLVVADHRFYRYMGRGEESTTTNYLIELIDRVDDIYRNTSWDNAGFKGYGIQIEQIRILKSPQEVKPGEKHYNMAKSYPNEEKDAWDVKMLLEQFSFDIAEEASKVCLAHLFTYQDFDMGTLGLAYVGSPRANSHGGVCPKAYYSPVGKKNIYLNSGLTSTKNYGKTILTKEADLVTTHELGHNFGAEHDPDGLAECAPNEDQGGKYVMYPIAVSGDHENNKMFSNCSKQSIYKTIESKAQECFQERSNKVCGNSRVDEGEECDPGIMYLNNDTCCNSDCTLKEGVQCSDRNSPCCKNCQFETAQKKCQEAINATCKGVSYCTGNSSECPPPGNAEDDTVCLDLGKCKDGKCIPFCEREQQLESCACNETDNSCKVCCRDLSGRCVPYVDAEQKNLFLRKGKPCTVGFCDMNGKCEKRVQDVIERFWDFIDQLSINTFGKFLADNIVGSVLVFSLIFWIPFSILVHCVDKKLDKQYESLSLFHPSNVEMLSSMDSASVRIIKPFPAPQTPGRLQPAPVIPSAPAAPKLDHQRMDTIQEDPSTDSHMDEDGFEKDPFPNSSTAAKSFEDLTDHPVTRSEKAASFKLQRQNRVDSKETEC

Km of the ADAM17-catalysed cleavage of the fluorogenic substrate (Lineweaver–Burk plot), control without E144: 580 µM | Km of the ADAM17-catalysed cleavage of the fluorogenic substrate (Lineweaver–Burk plot), in the presence of 5 μM E144: 20 µM
Substance: Mca-KPLGL-Dpa-AR-NH2, fluorogenic ADAM17 substrate (peptide)
